The target of this test is 5-IAF-labeled p53-TAD A63C mutant (UniProt P04637). Nature of the test: fluorescence polarisation.

Kd data for one substance are collected here from article PMC12117093.

As usually defined, the Kd is the equilibrium constant for the complex coming apart. A lower Kd goes with a tighter complex.

As for “FOXO4 Forkhead DNA-binding domain (FOXO4-DBD, residues 86-211) (from UniProt P98177 86-211) (domain or fragment)”, the Kd stood at 42 µM.
